The target of assay [1] is T1, [^125 I]-BMP-4 (Homo sapiens (Human), UniProt P12644, 125I label (iodinated with IODOBEADS or by the chloramine-T method)).
T1 sequence: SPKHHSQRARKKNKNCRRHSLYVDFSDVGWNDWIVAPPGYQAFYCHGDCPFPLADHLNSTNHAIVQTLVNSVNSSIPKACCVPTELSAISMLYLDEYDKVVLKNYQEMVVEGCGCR
The assay is described as follows: covalent crosslinking (DSS) to co-transfected COS-1 cells, SDS gel. The text has this: COS-1 cells are transfected with the cDNA for m-BRK-3 using the construct pJT6-mBRK-3S, and/or with cDNAs for BRK-1 (using pJT4-J159F) or BRK-2 (using pJT3-BRK-2). The cells are then allowed to bind [^125I]-BMP-4, crosslinked with disuccinimidyl suberate, immunoprecipitated with antibodies to BRK-1 or BRK-2, and subjected to SDS gel electrophoresis. Antisera used are indicated below the lanes: PI, preimmune; 1379, for cells transfected with cDNA for BRK-1; 1380, for cells transfected with cDNA for BRK-2. Position of molecular weight standards is indicated on the left. Left to right, COS-1 cells transfected with BRK-1 plus m-BRK-3 (preimmune serum); BRK-1 alone; BRK-1 plus m-BRK-3; BRK-2 plus m-BRK-3; BRK-2 alone; and BRK-2 plus m-BRK-3 (preimmune serum).
COS-1 cells are transfected with the cDNA for m-BRK-3, using the construct pJT6-mBRK-3 S, and/or with cDNAs for BRK-1 (using pJT4-J159F) or BRK-2 (using pJT3-BRK-2) as described in Example 5. The transfected cells are incubated with [^125I]-BMP-4, crosslinked, and subjected to immunoprecipitation with antibodies to the appropriate type I receptor or preimmune serum as described in example 8, except that DSS is used as the crosslinking agent rather than disuccinimidyl glutarate. In cells transfected with cDNA for BRK-1 alone, a single band is precipitated by antibodies to BRK-1, migrating at an apparent molecular weight of 81 kD. […]

Assay [2] deals with T2, mouse BMP receptor kinase protein (m-BRK-3) (mouse).
T2 chain: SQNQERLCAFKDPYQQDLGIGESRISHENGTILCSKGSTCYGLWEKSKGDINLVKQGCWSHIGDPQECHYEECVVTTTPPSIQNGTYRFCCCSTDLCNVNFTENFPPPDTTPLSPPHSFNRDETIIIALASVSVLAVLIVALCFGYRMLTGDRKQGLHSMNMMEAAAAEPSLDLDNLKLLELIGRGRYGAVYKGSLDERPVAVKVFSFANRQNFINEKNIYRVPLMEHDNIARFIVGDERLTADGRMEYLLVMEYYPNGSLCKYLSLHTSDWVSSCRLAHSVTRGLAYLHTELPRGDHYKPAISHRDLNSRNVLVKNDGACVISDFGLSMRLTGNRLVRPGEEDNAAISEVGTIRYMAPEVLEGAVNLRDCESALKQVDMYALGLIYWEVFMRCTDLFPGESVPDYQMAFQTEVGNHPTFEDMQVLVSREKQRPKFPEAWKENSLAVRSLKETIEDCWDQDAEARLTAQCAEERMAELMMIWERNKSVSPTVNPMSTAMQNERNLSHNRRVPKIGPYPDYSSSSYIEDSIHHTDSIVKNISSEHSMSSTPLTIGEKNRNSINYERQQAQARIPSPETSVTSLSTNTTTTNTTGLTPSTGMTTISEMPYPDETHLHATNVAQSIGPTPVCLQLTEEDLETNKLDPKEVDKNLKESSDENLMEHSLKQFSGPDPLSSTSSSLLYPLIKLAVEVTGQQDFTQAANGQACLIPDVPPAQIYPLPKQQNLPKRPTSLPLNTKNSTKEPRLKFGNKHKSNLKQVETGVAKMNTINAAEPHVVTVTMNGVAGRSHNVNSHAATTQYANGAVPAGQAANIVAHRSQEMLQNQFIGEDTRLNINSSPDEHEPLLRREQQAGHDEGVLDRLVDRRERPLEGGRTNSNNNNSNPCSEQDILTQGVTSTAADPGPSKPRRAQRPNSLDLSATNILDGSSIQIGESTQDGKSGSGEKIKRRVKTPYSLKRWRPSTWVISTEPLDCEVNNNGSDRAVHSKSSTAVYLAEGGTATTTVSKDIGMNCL
The assay is described as follows: whole cell binding of [125I]-BMP-4 to COS-1 cells transfected with pJT6-mBRK-3S or pJT6-mBRK-3L. Particulars: remark: other sources report otherwise; scale: times the level of mock transfected cells.

“And” between values parts separate entries of the source, which are not always exact repeats. Equal entries are not always repeated.

B1: m-BRK-3/BRK-1 complex (receptor)
chain 1: T2 chain
chain 2: QNLDSMLHGTGMKSDLDQKKPENGVTLAPEDTLPFLKCYCSGHCPDDAINNTCITNGHCFAIIEEDDQGETTLTSGCMKYEGSDFQCKDSPKAQLRRTIECCRTNLCNQYLQPTLPPVVIGPFFDGSIRWLVVLISMAVCIVAMIIFSSCFCYKHYCKSISSRGRYNRDLEQDEAFIPVGESLKDLIDQSQSSGSGSGLPLLVQRTIAKQIQMVRQVGKGRYGEVWMGKWRGEKVAVKVFFTTEEASWFRETEIYQTVLMRHENILGFIAADIKGTGSWTQLYLITDYHENGSLYDFLKCATLDTRALLKLAYSAACGLCHLHTEIYGTQGKPAIAHRDLKSKNILIKKNGSCCIADLGLAVKFNSDTNEVDIPLNTRVGTKRYMAPEVLDESLNKNHFQPYIMADIYSFGLIIWEMARRCITGGIVEEYQLPYYNMVPSDPSYEDMREVVCVKRLRPIVSNRWNSDECLRAVLKLMSECWAHNPASRLTALRIKKTLAKMVESQDVKI
For the molecule B1, in assay [1], the binding result was “binds”.

B2: m-BRK-3/BRK-2 complex (receptor)
chain 1: T2 chain
chain 2: RKEDSEGTAPAPPQKKLSCQCHHHCPEDSVNSTCSTDGYCFTIIEEDDSGGHLVTKGCLGLEGSDFQCRDTPIPHQRRSIECCTGQDYCNKHLHPTLPPLKNRDFAEGNIHHKALLISVTVCSILLVLIIIFCYFRYKRQEARPRYSIGLEQDETYIPPGESLKDLIEQSQSSGSGSGLPLLVQRTIAKQIQMVKQIGKGRYGEVWMGKWRGEKVAVKVFFTTEEASWFRETEIYQTVLMRHENILGFIAADIKGTGSWTQLYLITDYHENGSLYDYLKSTTLDTKGMLKLAYSSVSGLCHLHTGIFSTQGKPAIAHRDLKSKNILVKKNGTCCIADLGLAVKFISDTNEVDIPPNTRVGTKRYMPPEVLDESLNRNHFQSYIMADMYSFGLILWEIARRCVSGGIVEEYQLPYHDLVPSDPSYEDMREIVCIKRLRPSFPNRWSSDECLRQMGKLMMECWAHNPASRLTALRVKKTLAKMSESQDIKL
B2: the binding result in assay [1] is “binds”.

B3: [^125 I]-BMP-4, P12644 (ligand)
chain: T1 sequence
modifications: here or on the partner: 125I label (iodinated with IODOBEADS or by the chloramine-T method)
As for B3, in assay [2], the specific binding, times the level seen with mock transfected cells was 4 and 4 to 7.

Source of the values: US6306622, “cDNA encoding a BMP type II receptor” (The Procter & Gamble Co., dated 2001).
